B1: TPR t1 (parent)
chain: GACCAAUCUGCCCUCAGAGCUCGAGAACAUCUUCGGAUGCAGAGGAGGCAGGCUUCGGUGGCGCGAUAGCGCCAACGUCCUCAACCUCCAAUGCAUCCCACCACAUGAUGAUGCCUGAAGAGCCUUGGUUUUUUG

Variants of: B1
Assay: polymerase ribozyme fitness, log enrichment relative to wild type (log ratio); higher = more active; in vitro selection for triplet polymerase activity
In short: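 Only genotypes with ≥10 input reads and ≥1 read per output were kept after Illumina sequencing of input and output libraries. These libraries were PCR-built, transcribed mutants of each subunit of a heterodimeric triplet polymerase ribozyme, each put through one triplicate in vitro selection round with frozen incubation at −7 °C, gel excision of extended constructs, streptavidin-bead capture and RT-PCR. Fitness is a logarithmic ratio of genotype enrichment to wild-type enrichment, from inverse-variance-weighted replicate averages, with the logarithm in base 2.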

Variant	polymerase ribozyme fitness (log ratio)
GACCAAUCUGCCCUCAUAGCUCGAGAACAUCUUCGGAUGCAGAGGAGGCAGGCUUCGGUGACGCGAUAGCGCCAACGUCCUCAACCUCCAAUGCAUCCCACCACAUGAUGAUGCCUGAAGAGCCUUGGUUUUUUG [G17U G61A]	-2.18
GACCAAUCUGCCCUCAUAGCUCGAGAACAUCUUCGGAUGCAGAGGAGGCAGGCUUCGGUGGCGCGAUAGCUCCAACGUCCUCAACCUCCAAUGCAUCCCACCACAUGAUGAUGCCUGAAGAGCCUUGGUUUAUUG [G17U G71U U132A]	-2.7
GACCAAUCUGCCCUCAUAGCUCGAGAACAUCUUCGGAUGCAGAGGAGGCAGUCUUCGGUGGCGCGAUAGCGCCAACGUCCUCGAUCUCCAAUGCAUCCCACCACAUGAUGAUGCCUGAAUAGCCUUGGUUUUUUG [G17U G52U A83G C85U G120U]	-3.18
GACCAAUCUGCCCUCAUAGCUCGAGAACAUCUUCGGAUGCAGAGGAGGCAGGCUUCGGUGGCGCGAUAGCGCCAACGCCCUCAACCUCCAAUGCAUCCCACCACAUGAUGAUGCCUGAAGAGCCUUGGUUUUUUG [G17U U78C]	-2.6
GACCAAUCUGCCCUCAUAGCUCGAGAACAUCUUCGGAUGCAGAGGAGGCAGGCUUCGGUUGCGCGAUAGCGCCAACGUCCACAACCUCCAAUGCAUCCCACCACAUGAUGAUGCCUGAAGAGCCUUGGUUUUUUG [G17U G60U U81A]	-3.3
GACCAAUCUGCCCUCAUAGCUCGAGAACAUCUUCGGAUGCAGAGGAGGCAGGCUUCGGUGGCACGAUAGCGCCAACGUCCUCAACCUCCAAUGCAUCCCACCACAUGAUGAAGCCUGAAGAGCCGUGGUUUUUUG [G17U G63A U112A U125G]	-3.29
GACCAAUCUGCCCUCAUAGCUCGAGAACAUCUUCGGAUGCAGAGGAGGCAGGCUUCGGUGGCGUGAUAGCGCCAACGUCCUCAACCUCCAAUGCAUCCCACCACAUGAUGAUGCCUGAAGAGCCUUGGUUUUUUG [G17U C64U]	-2.46
GACCAAUCUGCCCUCAUAGCUCGAGAACAUCUUCGGAUGCAGAGGAGGCAGGCUUCGGUGGCGCGAUAUCGCCAACGUCCUCAACCUCCAAUGCAUCCCACCACAUGAUGAUGCCUGAAGAGCCUUGGUUUUUUG [G17U G69U]	-0.0598
GACCAAUCUGCCCUCAUAGCUCGAGAACAUCUUCGGAUGCAGAGGAGUCAGGCUUAGGUGGCGCGAUAGCGCCAACGCCCUCAACCGCCAAUGCAUCCCACCACAUGAUGAAGCCUGAAGAGCCUUGGUUUUUUG [G17U G48U C56A U78C U87G U112A]	-3.06
GACCAAUCUGCCCUCAUAGCUCGAGAACAUCUUCGGAUGCAGAGGAGGCAGGCUUCGGUGACGCGAUAGCGACAACGUCCUCAACCUCAAAUGCAUCCCACCACAUGAUGAUGCCUGAAGAGCCUUGGUUUUUUG [G17U G61A C72A C89A]	-4.9
GACCAAUCUGCCCUCAUAGCUCGAGAACAUCUUCGGAUGCAGAGGAGGCAGGCUUCGGUGGCGCGAUAGCGGCAACGUCCUCAACCUCCAAUGCAUCCCACCACAUGAUGAUGCCUGAAGAGCCUUGGUUUUUUG [G17U C72G]	-2.35
GACCAAUCUGCCCUCAUAGCUCGAGAACAUCUUCGGAUGCAGAGGAGGCAGGCUCCGGUGGCGCGAUAGCGCCAACGUCCUCAACCUCCAAUGCAUCCCACCACAUGAUGAUGCCUGAAGAGCCUUGGUUUUUUG [G17U U55C]	-2.57
GACCAAUCUGCCCUCAUAGCUCGAGAACAUCUUCGGAUGCAGAGAAGGCAGGCUUCGGUCGCGCGAUAGCGCCAACGUCCUCAACCUCCAAUGCAUCCCACCACAUGAUGAUGCCUGAAGAGCCUUGGUUUUUUG [G17U G45A G60C]	-2.05
GACCAAUCUGCCCUCAUAGCUCGAGAACAUCUUCGGAUGCAGACGAGGCAGGCUUCUGUGGCGCGAUAGCGCCAACGUCCUCAACCUCCAAUGCAUCCCACCACAUGAUGACGCCUGAAGAGCCUUGGUUUUUUA [G17U G44C G57U U112C G135A]	-1.76
GACCAAUCUGCCCUCAUAGCUCGAGAACAUCUUCGGAAGCAGAGGAGGCAGGCUUCGGUGGCGCGAUAGCCCCAACGUCCUCAACCUCCAAUGCAUCCCACCACAUGAUGAUGCCUGAAGAGCCAUGGUUUUUUG [G17U U38A G71C U125A]	-4.76
GACCAAUCUGCCCUCAUAGCUCGAGAACAUCUUCGGAUGCAGAGGAGGCAGGCUUCGGUGGCGCGAUAACGCCAACGUCCUCAACCUCCAAUGCAUCCCACCACAUGAUGAUGGCUGAAGAGCCUUGGUUUUUUG [G17U G69A C114G]	-5.6
GACCAAUCUGCCCUCAUAGCUCGAGAACAUCUUCGGAUGCAGAGGAGGCAGGCUUCGGUGGCGCGAUAGCGCCAACGUCCUCAACCUCCAAUGCAUCCCACCACAUGAUGAUGCCUAAAGAGCCUUGGAUUUUUG [G17U G117A U129A]	-4.12
GACCAAUCUGCCCUCAUAGCUCGAGAACAUCUUCGGAUGCAGAGGAGGCAGGCUUCGGUGGCGCGAGAGCGCAAACGCCCUCAACCUCCAAUUCAUCGCACCACAUGAUGAUGCCCGAAGAGCCUUGGUUUUUUG [G17U U67G C73A U78C G93U C98G U116C]	-6.28
GACCAAUCUGCCCUCAUAGCUCGAGAACAUCUUCGGAUGCAGAAGAGGCAGGCUUCGGUGGUGCGAUAGCGCCAACGUCCUCUACCUCCAAUGCAUCCCACCACAUGAUGAUGCCUAAAGAGCCUUGGUUUUUUG [G17U G44A C62U A83U G117A]	-5.24
GACCAAUCUGCCCUCAUAGCUCGAGAACAUCUUCGGAUUCAGAGGAGGCAGGCUUCGGUGGCGCGAUAGCGCCAACGUCCUCAACCUCCAAUGCAUCCCACCACAUGAUUAUGCCUGAAGAGCCUUGGUUUUUUG [G17U G39U G110U]	-4.99
GACCAAUCUGCCCUCAUAGCUCGAGAACAUCUUCGGAUGCAGAGGAGGCAGGCUUCGGUGGCGCGAUAGCGCCAACGUCCUCAACCUCCAAUGCAUCCCAUCACAUGAUGAUGCCUGAAGAGCCUUGGUUUUUUG [G17U C101U]	-2.53

Variant	polymerase ribozyme fitness (log ratio)
GACCAAUCUGCCCUCAUAGCUCGAGAACAUCUUCGGAUGCAGAGGAGGCAGGCUUCGGUGGCGCGAUAGGGCCAACGUCCUGAACCUCCAAUGCAUCCCACCACAUGAUGAUGCCUGAAGAGCAUUGGUUGUUUG [G17U C70G C82G C124A U131G]	-4.66
GACCAAUCUGCCCUCAUAGCUCGAGAACAUCUUCGGAUGCAGAGGAGGCAGGCUUCGGUGGCGCGAUAGCGCCAACGUCCUCAACCUCCAAUGCAUCCCACCACAUGAUGAUGACUGAAGAGCCUUGGUUUUUUG [G17U C114A]	-5.05
GACCAAUCUGCCCUCAUAGCUCGAGAACAUCUUCGGAUGCAGAGGAGGCAGGCUUCGGUGGCGCGAUAGCGCCAACGUCCUCAACCUCGAAUGCAUCCCACCACAUGAUGAUGCCUGAAGAGCCUUGGUUUUUUG [G17U C89G]	-2.98
GACCAAUCUGCCCUCAUAGCUCGAGAACAUCUUCGGAUGCAGAGGAGGCAGGCUUCGGUGGCGCGAUAGCGCCAACGUCCUCAACCUCCAAUGCAUCCCACCACAUGAUGAUGGCUGAAGAGCCUUGGUUUAUUG [G17U C114G U132A]	-5.35
GACCAAUCUGCCCUCAUAGCUCGAGAACAUCUUCGGAUGCAGAGGAGGCAGGCUUCGGUGGCGCGAUAGCGCCAACGUCCUCAAACUCCAAUGCAUCCCACCACAUGAUGAUGCCUGAAGAGCCUUGGUUUUUUG [G17U C85A]	-3.6
GACCAAUCUGCCCUCAUAGCUCGAGAACAUCUUCGGAUGCAGAGGAGGCAGGCUUCGGUGGCGCGAUAGCGCCAACGUCCUCAACCUCCAAUGCAUCCCACCACAUGAUGAUGCCUGAACAGCCUUGGUUUUUUG [G17U G120C]	-1.09
GACCAAUCUGCCCUCAUAGCUCGAGAACAUCUUCGGAUGCAGAGGAGGCAGGCUUCGGUGACGCGAUAGCGCCAACGUCCUCAACCUUCAAUGCAUCCCACCAAAUGAUGAUGCCUGAAGAGCCUUGGUUUUAUG [G17U G61A C88U C104A U133A]	-4.19
GACCAAUCUGCCCUCAUAGCUCGAGAACAUCUUCGGAUGCAGAGGAAGUAGGUUUCGGUGGCGCGAUAGCGUCAACGUCCUCAACCUCCAAUGCAUCCCACCACAUGAUGAUGCCUGAAGAGCCUUGGUUUUUUG [G17U G47A C49U C53U C72U]	-4
GACCAAUCUGCCCUCAUAGCUCGAGAACAUCUUCGGAUGCAGAGGAGGCAGGCUUCGGUGGCGCGAUAGCGCCAACGUCCUGAACCUCCAAUGCAUCCCACCACAUGAUGAUGCCUGAAGAGCCUUGGUUUUUUG [G17U C82G]	-2.98
GACCAAUCUGCCCUCAUAGCUCGAGAACAUCUUCGGAUGCAGAGGAGGCAAGCUUCGGUGGCGCGAUAGCGCCAACGUCCUCAACCUCCAAUGCAUCCCACCACAUGAUGAUGCCUGAAGUGCCUUGGUUUUUUG [G17U G51A A121U]	-3.76
GACCAAUCUGCCCUCAUAGCUCGAGAACAUCUUCGGAUGCAGAGGAGGCAGGCUUCGGUGGCGCGAUAGCACCAACGUCCUCAUCCUCCAAUGCAGCCCACCACAUGAUGAUGCCUGAAGAGCCUUGUUCUUUUG [G17U G71A A84U U96G G128U U130C]	-5.57
GACCAAUCUGCCCUCAUAGCUCGAGAACAUCUUCGGAUGCAGAGGAGGCAGGCUUCAGUGGCGCGAUAGCGCCAACGUCCUCAACCUCCAAUGCAUCCCAACACAUUAUGAUGCCUGAACAGCCUUAGUUUCUUG [G17U G57A C101A G107U G120C G127A U132C]	-5.32
GACCAAUCUGCCCUCAUAGCUCGAGAACAUCUUCGGAUGCAGAGGAGGCAGGCUUCGGUGGCGCGAUAGCGCCAACGUCCUCAACCUCCAAUGCAUCCCACCACAUGAUGAUGCCUAAAGAGCCUUGGUUUUUUG [G17U G117A]	-3.31
GACCAAUCUGCCCUCAUAGCUCGAGAACAUCUUCGGAUGCAGAGGAGGCAGCCUUCGGUGGCGCGAUAGCGCCAACUUCCUCAACCUCCAAUGCAUCCCACCACAUGAUGAUGCCUGAAGAGUCUUGGUUUUUUG [G17U G52C G77U C123U]	-2.34
GACCAAUCUGCCCUCAUAGCUCGAGAACAUCUUCGGAUGCAGAGGAGGCAGGCUUCGGUGGCGCGAUAGCUCCAACGUCCCCAACCUCGAAUGCAUCCCACCACAUGAUGAUGCCUGAGGAGCCUUGAUUUUUUG [G17U G71U U81C C89G A119G G128A]	-4.58
GACCAAUCUGCCCUCAUAGCUCGAGAACAUCUUCGGAUGCAGAUGAGGGAGGCUUCGGUGGCGCGAUAGCGCCAACGUCCUCAACCUCCAAUGCAUCCCACCACAUGAUGAUGCCUGAAGAGCCUUGGUUUUUUG [G17U G44U C49G]	-5.1
GACCAAUCUGCCCUCAUAGCUCGAGAACAUCUUCGGAUGCAGAGGAGGCAGGCUACGGUGGCGCGAUAGCGCCAACGUCCUCAACCUCCAAUGCAUCCCACCACAUGAUGAAGGCUGAACAGCCUUGGUUUUUUG [G17U U55A U112A C114G G120C]	-5.87
GACCAAUCUGCCCUCAUAGCUCGAGAACAUCUUCGGAUGCAAAGGAGGCAGGCUUCGGUGGCGCGAUAGCGCCAACGUCCUCAACCUCCAAUGCAUCCCACCACAUGAUGAUGCCUGAAGAGCCUUGGUUUUUUG [G17U G42A]	-3.86
GACCAAUCUGCCCUCAUAGCUCGAGAACAUCUUCGGAUGCAGAGCAGGCAGGCUUCGGUGGUGCGAUAGCGCCAACGUCCUCAACCUCCAAUGCAUCCCACCACAUGAUGAUGCCUGAAGAGCCUUGGUUUUUUG [G17U G45C C62U]	-4.56
GACCAAUCUGCCCUCAUAGCUCGAGAACAUCUUCGGAUGCAGAGGAGGCAGGCUUCGGUGGCGCGAUAGCGCCAACGUCCUCAACCUCCAAUGCAUCCCACCACAUGAUGAUGCCUGAAGAGCGUUGCUUUUUUG [G17U C124G G128C]	-1.84
GACCAAUCUGCCCUCAUAGCUCGAGAACAUCUUCGGAUGCAGAGGAGGCAGGCUUCGGUGGCGCGAUAGCGCGAACGUCCUCAACCUCCAAUGCAUCCCACCACAUGAUGAUGCCUGAAGAGCCUUGGUUUUUUG [G17U C73G]	-2.39

Reference: the RNAGym collection of RNA variant scans (doi:10.1073/pnas.2313332121)
